# Numbered stars: 1 amine (or outer) side, 2 acyl side, 3 side chain; on linkers, the order of the positions; unused ones are H or OH. Bridge positions count the residues as written; N and C are the ends. Square brackets hold non-standard residues; d marks the D form. Primed or numbered codes have the meaning given here. Ends that are not written are not given here. * marks the point of attachment. Ida = iminodiacetic acid, O=C(CN(CC(=O)[*:3])[*:1])[*:2]; PEG3′ = NH2CH2CH2(OCH2CH2)3CH2CH2CO2H (PEG3 linker); Dip = N[C@H](C(=O)O)C(c1ccccc1)c1ccccc1; Palmitoyl = CCCCCCCCCCCCCCCC(=O)*; pGlu = O=C1CC[C@@H](C(=O)O)N1; β3hP = O=C(O)C[C@@H]1CCCN1; Isovaleryl = CC(C)CC(=O)*; Isobutyryl = CC(C)C(=O)*; Octanoyl = CCCCCCCC(=O)*; βAla = NCCC(=O)O; Sar = CNCC(=O)O
# T1: human ferroportin (SLC40A1) fused in frame with GFP, stably expressed in HEK293 cells (human, UniProt Q9NP59 1-571)
# T1 sequence (looked up): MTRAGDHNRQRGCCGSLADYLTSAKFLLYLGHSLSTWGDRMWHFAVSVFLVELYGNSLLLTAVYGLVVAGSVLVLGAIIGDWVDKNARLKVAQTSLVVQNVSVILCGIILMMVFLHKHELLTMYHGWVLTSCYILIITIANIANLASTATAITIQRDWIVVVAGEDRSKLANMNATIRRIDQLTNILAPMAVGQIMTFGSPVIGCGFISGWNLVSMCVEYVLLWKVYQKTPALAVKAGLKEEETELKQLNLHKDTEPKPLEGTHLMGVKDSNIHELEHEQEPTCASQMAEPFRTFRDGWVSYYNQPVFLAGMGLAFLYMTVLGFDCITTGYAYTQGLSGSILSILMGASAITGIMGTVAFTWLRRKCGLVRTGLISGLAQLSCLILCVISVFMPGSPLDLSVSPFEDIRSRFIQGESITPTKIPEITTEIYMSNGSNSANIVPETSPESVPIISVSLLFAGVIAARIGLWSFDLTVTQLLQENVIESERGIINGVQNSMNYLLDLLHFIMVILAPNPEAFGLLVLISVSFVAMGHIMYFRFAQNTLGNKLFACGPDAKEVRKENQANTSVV
# T2: human ferroportin (SLC40A1) fused in frame with GFP, stably expressed in HEK293 cells (human, UniProt Q9NP59 1-571)
# T2 sequence (looked up): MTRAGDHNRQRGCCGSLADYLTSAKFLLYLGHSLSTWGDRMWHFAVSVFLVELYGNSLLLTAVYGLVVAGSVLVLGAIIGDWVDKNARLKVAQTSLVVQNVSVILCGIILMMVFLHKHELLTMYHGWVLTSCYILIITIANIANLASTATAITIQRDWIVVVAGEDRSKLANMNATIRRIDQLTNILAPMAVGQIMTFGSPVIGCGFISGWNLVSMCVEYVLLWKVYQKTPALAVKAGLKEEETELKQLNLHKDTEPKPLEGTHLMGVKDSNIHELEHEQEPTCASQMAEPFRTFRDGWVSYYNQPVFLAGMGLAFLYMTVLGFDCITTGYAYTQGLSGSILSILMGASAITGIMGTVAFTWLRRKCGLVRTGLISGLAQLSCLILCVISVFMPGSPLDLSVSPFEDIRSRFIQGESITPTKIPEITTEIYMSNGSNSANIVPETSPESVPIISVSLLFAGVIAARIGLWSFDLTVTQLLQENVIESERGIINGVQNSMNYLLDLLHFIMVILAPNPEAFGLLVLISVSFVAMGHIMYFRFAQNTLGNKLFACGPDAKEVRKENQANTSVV
# Biological target: T1, human ferroportin (SLC40A1) fused in …
# Experiment: cell-based or functional assay
Potency EC50 (nM),Potency EC50 [nM],Binder
> 10000,,H-DTHFPCRRFGPRSKGWVC-NH2 (disulfide 6-18 (inferred)) [Hy-DTHFPCRRFGPRSKGWVC-NH2]
> 10000,,H-THFPCIIFGPRSKGWVCK-NH2 (disulfide 5-17 (inferred)) [Hy-THFPCIIFGPRSKGWVCK-NH2]
> 10000,,H-DTHFPIAIFGPRSKGWVAM-NH2 [Hy-DTHFPIAIFGPRSKGWVAM-NH2]
> 1000,,H-DTHFRCIIFGPRSKGWVCK-NH2 (disulfide 6-18 (inferred)) [Hy-DTHFRCIIFGPRSKGWVCK-NH2]

# Second part, the binder before the results:
Binder,Potency EC50 (nM),Potency EC50 [nM]
Isovaleryl-THFPCIIFGPRSKGWVCK-NH2 (disulfide 5-17 (inferred)) [Isovaleric acid-THFPCIIFGPRSKGWVCK-NH2],> 10000,
H-DTHF[Sar]CIIFGPRSKGWVCK-NH2 (disulfide 6-18 (inferred)) [Hy-DTHF-[Sarc]-CIIFGPRSKGWVCK-NH2],> 1000,
H-HFPCIIFGPRSKGWVCK-NH2 (disulfide 4-16 (inferred)) [Hy-HFPCIIFGPRSKGWVCK-NH2],> 10000,
Isovaleryl-DTHF[βAla]CIIFGPRSKGWVCK-NH2 (not fully specified (bridges); cysteine pairing not given here) [Isovaleric acid-DTHF-[β-Ala]-CIIFGPRSKGWVCK-NH2],,264
H-DTHFGCIIFGPRSKGWVCK-NH2 (disulfide 6-18 (inferred)) [Hy-DTHFGCIIFGPRSKGWVCK-NH2],> 1000,
[Ida]TH[Dip][β3hP]ICIFGPRSKGWVCM-NH2 (disulfide 7-18 (inferred)) [[Ida]-TH-[Dpa]-[bhPro]-ICIFGPRSKGWVCM-NH2],,17
H-DTHF[βAla]CIIFGPRSKGWVCK-NH2 (disulfide 6-18 (inferred)) [Hy-DTHF-[β-Ala]-CIIFGPRSKGWVCK-NH2],> 1000,
Isovaleryl-DTHFPCIKFGPK(Palmitoyl)SKGWVCK-NH2 (not fully specified (bridges); cysteine pairing not given here) [Isovaleric acid-DTHFPCIKFGP-K(Palm)-SKGWVCK-NH2],,2
"Isobutyryl-DTHFPICIFVCHRSKGCYRRCR-NH2 (disulfide 11-17, 7-21; SMILES CC[C@H](C)[C@@H]1NC(=O)[C@@H](NC(=O)[C@@H](NC(=O)[C@@H]2CCCN2C(=O)[C@H](Cc2ccccc2)NC(=O)[C@H](Cc2c[nH]cn2)NC(=O)[C@@H](NC(=O)[C@H](CC(=O)O)NC(=O)C(C)C)[C@@H](C)O)[C@@H](C)CC)CSSC[C@@H](C(=O)N[C@@H](CCCNC(=N)N)C(N)=O)NC(=O)[C@H](CCCNC(=N)N)NC(=O)[C@H](CCCNC(=N)N)NC(=O)[C@H](Cc2ccc(O)cc2)NC(=O)[C@@H]2CSSC[C@H](NC(=O)[C@H](C(C)C)NC(=O)[C@H](Cc3ccccc3)NC1=O)C(=O)N[C@@H](Cc1c[nH]cn1)C(=O)N[C@@H](CCCNC(=N)N)C(=O)N[C@@H](CO)C(=O)N[C@@H](CCCCN)C(=O)NCC(=O)N2) [Isobutyric acid-DTHFPIC1IFVC2HRSKGC2YRRC1R-NH2, listing 1 of 2 here]",,93
H-DTHFKCIIFGPRSKGWVCK-NH2 (disulfide 6-18 (inferred)) [Hy-DTHFKCIIFGPRSKGWVCK-NH2],> 1000,
DTHFPCIKFKPRSKGWVCK (N-terminal isovaleric acid; Palm on the side chain of Lys 10; C-terminal amide) [Isovaleric acid-DTHFPCIKF-K(Palm)-PRSKGWVCK-NH2],,9
Isovaleryl-HFPCIIFGPRSKGWVCK-NH2 (disulfide 4-16 (inferred)) [Isovaleric acid-HFPCIIFGPRSKGWVCK-NH2],> 10000,
"Isobutyryl-DTHFPICIFVCHRSKGCYRRCR-NH2 (disulfide 11-17, 7-21; SMILES CC[C@H](C)[C@@H]1NC(=O)[C@@H](NC(=O)[C@@H](NC(=O)[C@@H]2CCCN2C(=O)[C@H](Cc2ccccc2)NC(=O)[C@H](Cc2c[nH]cn2)NC(=O)[C@@H](NC(=O)[C@H](CC(=O)O)NC(=O)C(C)C)[C@@H](C)O)[C@@H](C)CC)CSSC[C@@H](C(=O)N[C@@H](CCCNC(=N)N)C(N)=O)NC(=O)[C@H](CCCNC(=N)N)NC(=O)[C@H](CCCNC(=N)N)NC(=O)[C@H](Cc2ccc(O)cc2)NC(=O)[C@@H]2CSSC[C@H](NC(=O)[C@H](C(C)C)NC(=O)[C@H](Cc3ccccc3)NC1=O)C(=O)N[C@@H](Cc1c[nH]cn1)C(=O)N[C@@H](CCCNC(=N)N)C(=O)N[C@@H](CO)C(=O)N[C@@H](CCCCN)C(=O)NCC(=O)N2) [Isobutyric acid-DTHFPIC1IFVC2HRSKGC2YRRC1R-NH2, listing 2 of 2 here]",,63
"[pGlu]THFPICIFVCHRSKGCYRRCR-NH2 (disulfide 11-17, 7-21; SMILES CC[C@H](C)[C@@H]1NC(=O)[C@@H](NC(=O)[C@@H](NC(=O)[C@@H]2CCCN2C(=O)[C@H](Cc2ccccc2)NC(=O)[C@H](Cc2c[nH]cn2)NC(=O)[C@@H](NC(=O)[C@@H]2CCC(=O)N2)[C@@H](C)O)[C@@H](C)CC)CSSC[C@@H](C(=O)N[C@@H](CCCNC(=N)N)C(N)=O)NC(=O)[C@H](CCCNC(=N)N)NC(=O)[C@H](CCCNC(=N)N)NC(=O)[C@H](Cc2ccc(O)cc2)NC(=O)[C@@H]2CSSC[C@H](NC(=O)[C@H](C(C)C)NC(=O)[C@H](Cc3ccccc3)NC1=O)C(=O)N[C@@H](Cc1c[nH]cn1)C(=O)N[C@@H](CCCNC(=N)N)C(=O)N[C@@H](CO)C(=O)N[C@@H](CCCCN)C(=O)NCC(=O)N2) [pGlu-THFPIC1IFVC2HRSKGC2YRRC1R-NH2]",,260
"H-DTHFPCIIFVCHRSKGCYWAVCFW-NH2 (disulfide 11-17, 6-22; SMILES CC[C@H](C)[C@@H]1NC(=O)[C@@H](NC(=O)[C@@H]2CCCN2C(=O)[C@H](Cc2ccccc2)NC(=O)[C@H](Cc2c[nH]cn2)NC(=O)[C@@H](NC(=O)[C@@H](N)CC(=O)O)[C@@H](C)O)CSSC[C@@H](C(=O)N[C@@H](Cc2ccccc2)C(=O)N[C@@H](Cc2c[nH]c3ccccc23)C(N)=O)NC(=O)[C@H](C(C)C)NC(=O)[C@H](C)NC(=O)[C@H](Cc2c[nH]c3ccccc23)NC(=O)[C@H](Cc2ccc(O)cc2)NC(=O)[C@@H]2CSSC[C@H](NC(=O)[C@H](C(C)C)NC(=O)[C@H](Cc3ccccc3)NC(=O)[C@H]([C@@H](C)CC)NC1=O)C(=O)N[C@@H](Cc1c[nH]cn1)C(=O)N[C@@H](CCCNC(=N)N)C(=O)N[C@@H](CO)C(=O)N[C@@H](CCCCN)C(=O)NCC(=O)N2) [Hy-DTHFPC1IIFVC2HRSKGC2YWAVC1FW-NH2]",> 10000,

# Biological target: T2, human ferroportin (SLC40A1) fused in …
# Experiment: cell-based or functional assay
row,"Potency EC50 (nM), ferroportin-GFP internalization/degradation [nM]",Binder
1,> 10000,Isovaleryl-DTHAPCIKFEPRSK[Sar]WECK-NH2 (disulfide 6-18 (inferred)) [Isovaleric acid-DTHAPCIKFEPRSK-[Sarc]-WECK-NH2]
2,62,Isovaleryl-DTHFPCIKFEPRSK(Octanoyl)EWVCK-NH2 (disulfide 6-18 (inferred)) [Isovaleric acid-DTHFPCIKFEPRS-K(octanoic acid)-EWVCK-NH2]
3,> 1000,Isovaleryl-DTHFGCIKFEPRSKEWVCK-NH2 (not fully specified (bridges); cysteine pairing not given here) [Isovaleric acid-DTHFGCIKFEPRSKEWVCK-NH2]
4,> 10000,Isovaleryl-DTHAPCIKF[Sar]PRSKGWECK-NH2 (disulfide 6-18 (inferred)) [Isovaleric acid-DTHAPCIKF-[Sarc]-PRSKGWECK-NH2]
5,57,Isovaleryl-DTHFPCIFEPRSKGTCK-NH2 (disulfide 6-16 (inferred)) [Isovaleric acid-DTHFPCIFEPRSKGTCK-NH2]
6,> 1000,Isovaleryl-DTEFPCIKFEPRSKEWVCK-NH2 (disulfide 6-18 (inferred)) [Isovaleric acid-DTEFPCIKFEPRSKEWVCK-NH2]

# Second part, the binder before the results:
row,Binder,"Potency EC50 (nM), ferroportin-GFP internalization/degradation [nM]"
1,Isovaleryl-SKHAPCIKFEPRSKGWECK-NH2 (disulfide 6-18 (inferred)) [Isovaleric acid-SKHAPCIKFEPRSKGWECK-NH2],> 10000
2,Isovaleryl-DTHFPCIKFEPHSKEWVCK-NH2 (not fully specified (bridges); cysteine pairing not given here) [Isovaleric acid-DTHFPCIKFEPHSKEWVCK-NH2],80
3,Isovaleryl-DTHAPCIKFEPRSKEWECK-NH2 (not fully specified (bridges); cysteine pairing not given here) [Isovaleric acid-DTHAPCIKFEPRSKEWECK-NH2],> 10000
4,Isovaleryl-STHAPCIKFEPRSKGWECK-NH2 (disulfide 6-18 (inferred)) [Isovaleric acid-STHAPCIKFEPRSKGWECK-NH2],> 10000
5,Isovaleryl-DTHFPCIIF[PEG3′]C-NH2 (cysteine pairing not given here) [Isovaleric acid-DTHFPCIIF-[PEG3]-C-NH2],157
